# From the domain aggregation screens of Martell et al. (2025)
# Test: soluble fraction after stress (log2 fold change); higher = more stays soluble; pooled small domains, quantitative proteomics
# Conditions: stress: 50 degC
# How it was run: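 Pooled custom libraries of small protein domains were each held under stress at 50°C. The read-out, high-throughput quantitative proteomics, tracked how much of each protein stayed soluble. This is reported as a base-two log fold change used to indicate aggregation propensity. Higher values mean more protein remains in solution.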
row,Sequence,soluble fraction (log2)
1,HMGLNPSILVKLGNANIKTIDNLADLASDELKEILEDISITSKEADEIIMRARSSWFEEDDKKEDNI,0.0789
2,HMGLPAWVPQNYIDRVTAIYDYSADKDDELTFNEGSTIFVLKKNDDGWWEGVMDGVTGLFPGNYVEAT,-0.8
3,HMGLQLTPVRRRVLEILLHEHRALGAYDILDKLRSEGLGSQPPVAYRALDFLVTHGFAHKIERLNAF,-0.609
4,HMGLQRLTVSPEDAGVRIDKYLAEQLPDITRSYLQKLLKDGSVQMNGKPVKASTKTAVGAVIALTIPEP,0.0689
5,HMGLSAEAARMAIQDAGLSKEDFAQKLGIKKVERVVEWEAGTSKPTFVQAQKIANATNIPFGYLFLVNPPK,0.0125
6,HMGLTRRAQLEVADANLKRLYPGMHQSWVTAIAEYLHSSYWRYINSLEPEYAASIQRVYEQHIDAM,0.0529
7,HMGLTYEQILTDVQRFVTQNHADTLSNEGNPEEARKLLKDYILQYVQNRSYHVDGQTTEELVDSLYED,-0.195
8,HMGLVDSLEPLLRRVYEALPQRRSMTTERLAVAAGLDEESVKVALARLQLSAFVGVDERGWHRSL,-1.11
9,HMGLVLIDSYNDIGSAKLITNKIRNLGLIFEENENKINVFAGPFEKNDINLKIDFLIRNGYTNAQLY,-2.48
10,HMGLVQQSAQKSDDAAKLMAANNLNAAQSKYQLPDEAEKDFFTFAFERGYAVEDFVDAGLVDKIMADFSA,-0.078
11,HMGLVVIGTEAGYPAEKAGILAGDRIRKLNGAAVPDYDTFLTALAARKGEPSAIELERDGKTLEVTVSPL,0.0119
12,HMGLWWTEAERELVKTTIEQLYKDTNIAEPVDSKNLRASIPALKAMRTGLSAENQARVDTLLGALQV,-0.157
13,HMGMAGILDSARMASFIQEKLGYGGGQIRASVMGGHGDDMVPLPRYSTVAGVPLSDVLTQNEIDEMFAQ,-0.0615
14,HMGMDALIGRRVFVSEEILPGDTGGRMAVDGDSWRAISVGTASNIPAGTEVRIRGHQSLVLEVEP,-0.116
15,HMGMEENLLKERKQILMDIMKSKEYQPMKVKELAMVLNVPKEDREELRYVLNELMNEGKIVESKKGKFSIA,0.177
16,HMGMESFWNRVANLLNTSTVVELAQILDVKRSTLSSWIHSDRRPPMEVLLKITRLTGVDIHRLE,-1.56
17,HMGMETQLSPKEKSIYTIIQNRPNIQSGEVSEKLAIPLPTVKRILSDLINKGLIEKQGSGRNVSYTI,0.254
18,HMGMFNENLRFLRQKRQMSQQAFASILGIPRTTYSEYEKGNTEPNLKLLIRLSELLDVSLDNLISDDLTHN,-2.44
19,HMGMKTSQKLARQREIVRLIRAQTIRTQAELADALRERAFPVSQPTLSKDIAELGLIKVPLPDSGYRYQLP,-0.378
20,HMGMNKEHFIIELKIYLKALNPKDQAIILAKYKALFDARVAEGETEEQVAKSLGKPRVIAEEILKEQGIE,-0.236
21,HMGMSMNEFLNNRLEQLAVEAVDKSSLGEEIFFYAEPATINLFKDAVDEDEYKVVFPVLKSIIEVEQKLSR,-1.03
22,HMGMTAPIPGVVLKVSVLPGQKVERGDELLTIEAMKMFNVMRSPSSGTIATVHIKDGDRVVQGQPLVTFA,0.025
23,HMGMTTSILDDVIGMGPKRKKALLKAFGSFGALRNATLEEIKQTHTVPEQVAEDVYAVLVQYNSKSE,-0.233
24,HMGMVKLNEEYLEKVKKHRKELHITQLQISKKLGWSLSRYQRFESGFYKEIEDDAPKKIKEEFGIDYSLL,-0.976
25,HMGNGALLTLTVKERQVIQLVAEGKSNKQIARDLNVTPETIKSHMKNIFAKLKVDNRAQAAVMVQQ,-0.638

row,Sequence,soluble fraction (log2)
1,HMGNGDTNERIATLMQILAKQESIINQYGLENPVVSPQMYVRTLKKVVELSGFKDASSYFADIPDGWKA,-0.00533
2,HMGNIADARRDASYVFLIGEWAKSSNLTEKKLAGLIQSNHLDIKYGITVTDVIADIRKYKNDPTYNPF,-0.305
3,HMGNIKVPSVMGMTLEGAEKVAKDNGAVIEVLEYKESTEEDGTIIEQSPKADMTVATLEKISVVISGK,-0.105
4,HMGNIYKALLGKLEKQLGFLPEGTKLPPEQELAEKFGVSKPTLRRALAELAVRGIIVKQNGIGSVVAGS,-0.142
5,HMGNKKLVLKLSKKLIKIPSFLNIYSVKLTKNGRELEINLDKSQNEAIDIINLIKKNNISFLEFDIKKR,-0.267
6,HMGNLIIFYDAQTGSAPLLKAVKTSGATLVYEYKNLHGIAIRPSSKTSIEDAIAYFKKVNGVLSVE,-1.84
7,HMGNPSGLPLPRFASTRSEPINVRVGPGQKYDIAWTYLKSGIPVEIIQEFDTWRKIRDFDGAEGWIHQNLL,-0.937
8,HMGNSRNDQDLQTQIIKILAEGPASSRTLIETLTIEDEAALLKTLKRLLMNKKISLTPSNLYKL,-0.487
9,HMGPAAGVVEKYNLAHLSTGEMIRKEIAEGSDFGKMAAGIINKGELLSDEFVVALIENSIEHHKNVDGFLF,-0.00841
10,HMGPAVGAIRVEGNKRVEPETVRTYLTFNVGDPYDLAKVDESLKALFATGLFQDVRIRREGNTVVIVVVEN,-0.368
11,HMGPAYQTQRQEAFAALSEIAAKNPQLMQVAGDLVFRAADFPMADELADRLAKTLPPQLQDKKGQP,-0.464
12,HMGPEISEDAKVVFDRLKNHDEILLNNFKSEFDLSNKKWDKIIKELRGNDLISIIKSEDGNLFIKP,-0.00901
13,HMGPELGENEKLIFDIIKKESKMELGILKAQVDLSNKKWDKALKGLATHGLTKVNKTDDGLFIELI,-0.095
14,HMGPIITKTYNLSYATARDVNDIIKSKKSARGDIVIDTRTNSLIVSDVQEKIDLIDEIVATL,-0.27
15,HMGPLSDRSVADWLLRLGLADTANNRLLLQVMHAAGLPLERTAVRAMRETAAGRPEGTDAREWLQAAAAAQ,-0.208
16,HMGPNSVPDLRGKSLRQAMKMVNDLELKAIFEGEGIVVGQVPAPGKPVPETKILKITLSLEPY,-0.109
17,HMGPPAVGSKLQDARKAQQLSLDELSKRAGVSKSMLSEVERNQANPTVGVLWRLATALGISLTDLLG,-0.374
18,HMGPPLISLDDGLAKGFGVGVGDTLTINILGRRITATIASLREIDWQSLRFDFAVVLSPGVLEGA,0.0913
19,HMGPRKAGSEATRQKILDAAEILFAERGFHSVSVRDITTEAGVDVALINYHFGSKQLLFETVFMRR,-0.331
20,HMGPRPLPAEFTHPSLRALLALGTTRGGVTSADVKTALEAASVPAGRRAAVLRALDDNGIEVHTEP,0.0376
21,HMGPSEVTLDNFVGKNYTDVVNDTSYQFTFKKEEKSDQTHAAGIIIAQSPKKGIKVKSNSTVTLTVSTG,-0.0626
22,HMGPVDFYQMFISELQHLAEKPVTVDALIESTQLHKSQLTEWLKRAVDDGVVKKLNRPARFQVKNK,-0.029
23,HMGPVRDLGLLESAAHRPTTALWGRDVYATIEKKAAALLDSLVRDRPLADGNKRLGWLAALV,0.0437
24,HMGPYGAGSAAPAEDGSGPEGWTVKGNAKSMLYHTEGSPYYGRTNADVWFRDEESAEAAGFRRWDRK,0.0581
25,HMGQAELPYSEFLREVNNGQVKSVIIEGSEITGFYKTSGTSFNVIAPDDPKLVERLMAQGVEVRAQPA,0.0327

row,Sequence,soluble fraction (log2)
1,HMGQDLEAFLLKAVGQLDQGDGVTLDALLKVAVSNGGFVREVAEAKLDDMLDAGTLDEPRFGWFRVGAT,-0.742
2,HMGQDLSYYIKIVQNQQPVDPLTGEPKVLDYGEVIRQAQILQMLDTGDLDRDKAIGQLSMKDAL,0.0152
3,HMGQELRFVIQDHEAGIRLDHYLTQQVEGYSRSHLRKLMDQGLITVDGSYRKAGYRLNVGDVIHVVIPPTR,-0.443
4,HMGQELTPVERTALDIAARDGKVSTRILAQEAGIGLRTASKTLAALAERGLLTWHGTSRRDPQQHYTS,0.00201
5,HMGQISDESVLKEMVVQLIADNPKEVASYLGGKETLLQWFMGQVARATKGKADPQAVKQLLLDEFEKLK,0.092
6,HMGQKETIVDLLKTNGTMTQLALAEAIYGDKNHGPNIYSVLMGRVNSGAVLRTGSQPAYYSLSG,0.0821
7,HMGQKMLTIELQEKVNKMPDNLASYDLKLSADGMSLIYKYSLKSERTGITALLQELKNAGLVMRDLKTEQ,-0.0274
8,HMGQLSDREALTVLAREALVELPRAAGDYRNGRTAALQSLVGRVMRKTAGRGNPALLQEIFRSLL,-0.436
9,HMGQLVVHQIKGEASRLDKFLVVNIPKYSRSVWREMINNGSVQVNGRVVKPHLLVKEGDIITWSS,-0.383
10,HMGQLVYPAGVYDVNKSYITDSNSAPYVLDKTDNNYYVLNTQMTWKGTEQDNKTPSQSYEESGGSVWLLFD,-0.235
11,HMGQPAVSSRDVAEQFGKEHRNVIQSIKNLIAENSALTFMFIEDTYTAGTGKKYPMYYMNRDGFTLLA,0.224
12,HMGQPGNWTSYVFKNSDTEPAKPTSSGPIPSGWNDAPTGVGIWWMSKATIDASTGKAGSWSTPIRVTGED,0.0592
13,HMGQSKNERMLELVELLNKASRSYYQDAQEIMSNYEYDRLYDELQNLEKELGITLSNSPTVN,-0.0536
14,HMGQVSDETGLARVVDALLAAHPDEVAKYRAGKTSLLGWFMGQVMKETRGQANPDLARALVLERLE,-0.101
15,HMGQYSTTLDKIENSLFGFTYSNEAENTRINRIENKVYGKTSTSQTSTRIAKLKKDLSVDEMG,0.0362
16,HMGREVVVPNLAGIEKEVALDLLKKNRLGGMITGTRFSSDFPAGQVIQQMPEAGSRVKVGKQVKLVLSEG,0.323
17,HMGRGSEDEQMRGLAVILAEQKQIMQTLGVENEVVKPEQYINTLKRMAELNGFKDTDQFFSIPQ,0.339
18,HMGRHSPLSIEQKEQLKTEIVALQQQRGGGRVTAVNIAELIQQKFNVVYNPNSLYKLLKQIGMSWV,-1.2
19,HMGRKEIIVPNLLGKYAIEAGTILKNAGLLEGQAREENSDTYPAGQIMDQFPKANTPANENDKVDYVVSI,≥ 0.62
20,HMGRLEVDLVVPYDKYEAMNVIRAEGRILKEDHQGDGAHLKIQINETALWKLKRMLGEGYGQ,-0.157
21,HMGRLPMNIVRAIVEHLDRHASYSEINRATGASKGFISKVAAAVEAASLTPEKFLLLNDEDIQNRITPGR,-0.234
22,HMGRPTLEQLLDRAQAMGVPRERYAAYADRRWGRGWRVNPHGRGRAWDELDRYRNDPAGYLDKIEVELNQL,-0.101
23,HMGRQVTVPNVTGMLVEEARAAISEAELWVDSPRAVQGEVTRQEPARGERLSPGQEVRIYTES,0.31
24,HMGRRSKAMLSSALDAVPGLGEMRRKALISQFGSLKKLRGATPEEIAAVPGIGPKLAAAVHEAVSG,0.0505
25,HMGRSTQVPGVEKMTYSQAVQLLHDHGFRVDIRDSLYRDDIKPGHVIEQFPKAKSIVKPGRKIFLYINAV,-1.32
